Measurements: the supplement of paper PMC10065799, “High-throughput profiling of sequence recognition by tyrosine kinases and SH2 domains using bacterial peptide display” (eLife, 2023)

Legend:
MERTK = MERTK (UniProt Q12866); assay: phosphorylation enrichment, bacterial display (enrichment ratio); higher = better substrate or ligand; peptides without Tyr show the background
Fyn = Fyn (UniProt P06241); assay: as above
Fes = Fes (UniProt P07332); assay: as above
FGFR1 = FGFR1 (UniProt P11362); assay: as above
c-Src = assay: as above
AncSZ = assay: as above
EPHB2 = EPHB2 (UniProt P29323); assay: as above
c-Abl (mouse) = assay: as above
Hck = Hck (UniProt P08631); assay: as above
EPHB1 = EPHB1 (UniProt P54762); assay: as above
Fer (mouse) = assay: as above
Jak2 = Jak2 (UniProt O60674); assay: as above
FGFR3 = FGFR3 (UniProt P22607); assay: as above
SHP2-C SH2 = assay: SH2 binding enrichment of the phosphorylated peptide, bacterial display (enrichment ratio); higher = better substrate or ligand; peptides without Tyr show the background
Grb2 SH2 = Grb2 SH2 (UniProt P62993); assay: as above
c-Src SH2 = assay: as above
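For SH2 binding enrichment of the phosphorylated peptide, bacterial display in this document: peptide library displayed on the E. coli surface as eCPX fusions, selected cells deep-sequenced, score is each peptide's frequency after selection divided by its frequency in the input.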
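For phosphorylation enrichment, bacterial display in this document: 11-residue human phosphosite peptides and single-mutation variants displayed on the E. coli surface, counted by deep sequencing, each peptide's frequency after selection divided by its frequency in the unselected input library; frequency after pTyr selection over input frequency; kinase dosed for 20-30% of maximal phosphorylation in three min.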

Sequence of Fyn (P06241 whole entry, looked up): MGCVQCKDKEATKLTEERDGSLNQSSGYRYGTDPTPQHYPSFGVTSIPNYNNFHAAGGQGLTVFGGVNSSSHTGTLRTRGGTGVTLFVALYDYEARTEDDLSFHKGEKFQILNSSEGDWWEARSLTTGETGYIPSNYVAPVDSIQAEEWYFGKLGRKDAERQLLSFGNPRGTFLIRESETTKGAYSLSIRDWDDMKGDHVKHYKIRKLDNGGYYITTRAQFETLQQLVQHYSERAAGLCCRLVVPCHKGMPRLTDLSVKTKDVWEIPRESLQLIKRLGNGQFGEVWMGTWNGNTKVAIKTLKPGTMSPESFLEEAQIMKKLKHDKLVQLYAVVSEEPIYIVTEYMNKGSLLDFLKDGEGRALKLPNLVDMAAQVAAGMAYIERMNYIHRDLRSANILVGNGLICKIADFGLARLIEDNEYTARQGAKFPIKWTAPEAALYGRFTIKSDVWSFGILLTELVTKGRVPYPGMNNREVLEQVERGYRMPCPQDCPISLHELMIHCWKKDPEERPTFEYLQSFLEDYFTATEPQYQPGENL
Sequence of Hck (P08631 whole entry, looked up): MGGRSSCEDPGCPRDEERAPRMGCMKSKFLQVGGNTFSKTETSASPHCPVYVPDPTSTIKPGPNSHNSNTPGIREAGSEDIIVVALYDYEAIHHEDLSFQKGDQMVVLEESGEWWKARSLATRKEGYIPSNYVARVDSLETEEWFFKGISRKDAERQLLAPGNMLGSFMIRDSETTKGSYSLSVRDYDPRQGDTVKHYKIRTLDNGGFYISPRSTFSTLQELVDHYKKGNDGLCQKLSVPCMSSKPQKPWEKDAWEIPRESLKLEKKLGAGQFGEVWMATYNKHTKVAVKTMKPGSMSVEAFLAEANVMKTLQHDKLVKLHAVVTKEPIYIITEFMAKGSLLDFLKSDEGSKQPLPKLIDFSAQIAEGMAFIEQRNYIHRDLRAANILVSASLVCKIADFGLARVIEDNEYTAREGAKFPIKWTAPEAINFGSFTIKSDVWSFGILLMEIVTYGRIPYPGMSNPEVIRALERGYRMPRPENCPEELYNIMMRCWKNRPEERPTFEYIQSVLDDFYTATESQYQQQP
Sequence of FGFR1 (P11362 whole entry, looked up): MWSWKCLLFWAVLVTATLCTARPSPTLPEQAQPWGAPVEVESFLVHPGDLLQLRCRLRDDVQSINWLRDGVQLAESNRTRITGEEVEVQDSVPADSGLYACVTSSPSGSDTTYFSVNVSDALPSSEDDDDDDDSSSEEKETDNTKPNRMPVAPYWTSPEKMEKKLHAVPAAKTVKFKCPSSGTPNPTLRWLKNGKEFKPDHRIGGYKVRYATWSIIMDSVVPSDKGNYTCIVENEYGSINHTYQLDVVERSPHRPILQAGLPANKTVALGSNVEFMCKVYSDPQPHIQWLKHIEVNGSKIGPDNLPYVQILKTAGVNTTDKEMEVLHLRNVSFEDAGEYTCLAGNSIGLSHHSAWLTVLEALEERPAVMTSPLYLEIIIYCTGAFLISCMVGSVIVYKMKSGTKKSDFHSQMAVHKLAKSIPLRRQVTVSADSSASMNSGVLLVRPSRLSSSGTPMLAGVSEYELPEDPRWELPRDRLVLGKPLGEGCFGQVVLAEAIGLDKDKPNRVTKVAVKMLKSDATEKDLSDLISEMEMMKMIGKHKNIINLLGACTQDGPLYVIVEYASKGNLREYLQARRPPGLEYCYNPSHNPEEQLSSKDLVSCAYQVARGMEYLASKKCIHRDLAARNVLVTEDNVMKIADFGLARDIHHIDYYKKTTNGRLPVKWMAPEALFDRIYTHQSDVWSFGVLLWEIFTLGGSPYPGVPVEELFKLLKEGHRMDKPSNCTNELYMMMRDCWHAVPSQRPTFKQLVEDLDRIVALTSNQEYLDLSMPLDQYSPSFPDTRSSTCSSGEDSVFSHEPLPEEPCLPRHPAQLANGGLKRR
Sequence of Jak2 (O60674 whole entry, looked up): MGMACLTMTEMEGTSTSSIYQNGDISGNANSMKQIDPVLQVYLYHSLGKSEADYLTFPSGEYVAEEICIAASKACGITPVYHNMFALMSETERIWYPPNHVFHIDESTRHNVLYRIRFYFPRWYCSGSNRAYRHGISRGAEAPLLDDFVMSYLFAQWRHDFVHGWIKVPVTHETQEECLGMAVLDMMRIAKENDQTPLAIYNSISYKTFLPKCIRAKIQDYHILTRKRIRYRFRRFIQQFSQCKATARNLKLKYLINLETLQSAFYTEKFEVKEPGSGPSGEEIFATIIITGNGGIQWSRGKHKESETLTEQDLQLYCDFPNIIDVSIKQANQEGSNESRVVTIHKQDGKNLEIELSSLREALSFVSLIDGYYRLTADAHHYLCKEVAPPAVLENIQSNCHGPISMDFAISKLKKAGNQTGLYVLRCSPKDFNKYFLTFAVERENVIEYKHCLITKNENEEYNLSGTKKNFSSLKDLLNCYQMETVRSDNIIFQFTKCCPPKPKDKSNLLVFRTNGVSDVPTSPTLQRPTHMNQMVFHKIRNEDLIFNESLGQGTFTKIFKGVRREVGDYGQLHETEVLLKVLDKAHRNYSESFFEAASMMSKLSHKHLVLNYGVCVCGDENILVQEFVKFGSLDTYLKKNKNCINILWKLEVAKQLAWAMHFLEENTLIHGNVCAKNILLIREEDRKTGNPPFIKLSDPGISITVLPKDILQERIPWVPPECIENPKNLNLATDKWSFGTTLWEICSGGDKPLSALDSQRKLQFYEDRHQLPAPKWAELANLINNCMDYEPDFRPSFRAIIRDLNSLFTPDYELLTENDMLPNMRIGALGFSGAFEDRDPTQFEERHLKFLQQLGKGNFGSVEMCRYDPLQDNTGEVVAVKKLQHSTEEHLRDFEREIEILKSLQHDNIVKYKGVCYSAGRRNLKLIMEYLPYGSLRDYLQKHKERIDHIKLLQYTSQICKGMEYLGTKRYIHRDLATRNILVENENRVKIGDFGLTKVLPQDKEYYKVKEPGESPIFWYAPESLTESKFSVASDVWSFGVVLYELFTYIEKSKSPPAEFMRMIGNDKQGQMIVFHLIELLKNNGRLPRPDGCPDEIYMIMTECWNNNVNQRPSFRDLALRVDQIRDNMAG
Sequence of FGFR3 (P22607 whole entry, looked up): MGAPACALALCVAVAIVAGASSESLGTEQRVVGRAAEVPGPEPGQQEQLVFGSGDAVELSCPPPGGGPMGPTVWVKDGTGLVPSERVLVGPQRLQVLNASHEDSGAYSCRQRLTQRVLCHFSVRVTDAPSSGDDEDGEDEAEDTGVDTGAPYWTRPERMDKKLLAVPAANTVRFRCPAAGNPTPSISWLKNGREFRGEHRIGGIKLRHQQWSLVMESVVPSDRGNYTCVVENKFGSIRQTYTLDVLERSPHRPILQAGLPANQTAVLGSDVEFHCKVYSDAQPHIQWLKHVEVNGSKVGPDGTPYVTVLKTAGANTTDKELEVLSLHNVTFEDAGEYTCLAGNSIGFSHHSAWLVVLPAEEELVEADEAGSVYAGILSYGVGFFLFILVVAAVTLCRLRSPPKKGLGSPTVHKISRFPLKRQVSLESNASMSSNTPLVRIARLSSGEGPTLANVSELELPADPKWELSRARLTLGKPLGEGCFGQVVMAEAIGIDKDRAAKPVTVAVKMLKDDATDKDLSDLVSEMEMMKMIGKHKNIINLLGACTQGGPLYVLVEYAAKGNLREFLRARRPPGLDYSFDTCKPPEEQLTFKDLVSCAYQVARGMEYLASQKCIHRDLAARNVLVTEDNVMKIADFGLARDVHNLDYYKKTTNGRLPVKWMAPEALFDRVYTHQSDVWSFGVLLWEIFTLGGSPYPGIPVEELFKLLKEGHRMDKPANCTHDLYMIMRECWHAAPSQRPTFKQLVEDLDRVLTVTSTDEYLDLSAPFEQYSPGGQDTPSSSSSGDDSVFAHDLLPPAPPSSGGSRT
Sequence of Fes (P07332 whole entry, looked up): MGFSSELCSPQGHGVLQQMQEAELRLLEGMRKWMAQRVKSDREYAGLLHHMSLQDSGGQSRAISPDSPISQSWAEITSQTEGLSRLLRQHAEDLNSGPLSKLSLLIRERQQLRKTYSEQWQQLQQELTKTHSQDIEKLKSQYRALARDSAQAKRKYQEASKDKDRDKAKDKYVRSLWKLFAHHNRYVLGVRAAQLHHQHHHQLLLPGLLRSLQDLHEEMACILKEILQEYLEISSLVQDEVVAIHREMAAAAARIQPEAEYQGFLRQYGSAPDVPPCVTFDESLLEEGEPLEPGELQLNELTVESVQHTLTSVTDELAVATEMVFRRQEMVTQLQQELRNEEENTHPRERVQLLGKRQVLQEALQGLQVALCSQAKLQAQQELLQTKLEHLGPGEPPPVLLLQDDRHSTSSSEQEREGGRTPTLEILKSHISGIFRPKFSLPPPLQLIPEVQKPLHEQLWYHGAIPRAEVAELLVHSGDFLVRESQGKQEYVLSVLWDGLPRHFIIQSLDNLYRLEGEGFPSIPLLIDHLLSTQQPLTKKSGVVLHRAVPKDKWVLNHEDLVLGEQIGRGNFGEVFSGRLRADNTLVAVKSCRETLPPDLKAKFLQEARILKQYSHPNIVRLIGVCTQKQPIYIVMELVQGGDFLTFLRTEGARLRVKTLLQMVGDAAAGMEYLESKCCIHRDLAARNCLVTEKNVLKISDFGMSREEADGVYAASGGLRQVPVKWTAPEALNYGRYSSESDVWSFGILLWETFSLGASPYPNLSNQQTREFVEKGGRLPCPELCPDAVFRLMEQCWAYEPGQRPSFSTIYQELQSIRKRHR

Row | SH2 binding enrichment (SHP2-C SH2) | SH2 binding enrichment (Grb2 SH2) | SH2 binding enrichment (c-Src SH2) | Sequence | phosphorylation enrichment (MERTK) | phosphorylation enrichment (Fyn) | phosphorylation enrichment (Fes) | phosphorylation enrichment (FGFR1) | phosphorylation enrichment (c-Src) | phosphorylation enrichment (AncSZ) | phosphorylation enrichment (EPHB2) | phosphorylation enrichment (c-Abl (mouse)) | phosphorylation enrichment (Hck) | phosphorylation enrichment (EPHB1) | phosphorylation enrichment (Fer (mouse)) | phosphorylation enrichment (Jak2) | phosphorylation enrichment (FGFR3)
1 | 0.652 | 0.672 | 0.485 | KMGNIYRTEFG [MRPL3_Y265_YF] | 0.477 | 0.536 | 0.5 | 0.482 | 0.532 | 0.535 | 0.34 | 0.471 | 0.488 | 0.337 | 0.393 | 0.448 | 0.514
2 | 0.626 | 0.848 | 0.507 | DRLASYLDKVR [KRT10_Y160] | 0.379 | 0.378 | 0.643 | 0.435 | 0.345 | 0.619 | 0.429 | 0.519 | 0.454 | 0.4 | 0.336 | 0.533 | 0.471
3 | 0.751 | 0.857 | 0.686 | PAIERYVVVCK [RHO_Y136_L131P] | 0.374 | 0.612 | 1.41 | 0.505 | 0.474 | 1.08 | 0.846 | 0.928 | 0.551 | 0.896 | 0.473 | 1.08 | 0.851
4 | 1.53 | 1.24 | 1.75 | YISLIYTNYEA [GSTP1_Y109] | 3.44 | 3.72 | 1.23 | 4.5 | 4.21 | 1.68 | 1.71 | 1.31 | 2.83 | 1.7 | 1.72 | 1.23 | 3.6
5 | 0.484 | 0.925 | 0.679 | KSMFVYCTPNK [ATP2A2_Y497_S495F] | 0.452 | 0.473 | 1.19 | 0.587 | 0.494 | 1.22 | 0.673 | 1.05 | 0.568 | 0.6 | 0.565 | 1.12 | 0.768
6 | 0.428 | 0.965 | 0.378 | RKRQFYLYKGK [RSPO4_Y112_C107R] | 0.602 | 0.503 | 0.432 | 0.437 | 0.44 | 0.613 | 0.615 | 0.296 | 0.358 | 0.343 | 0.494 | 0.228 | 0.4
7 | 1.06 | 0.884 | 0.661 | LQIPMYEVQWK [KIT_Y553_K550I] | 7.37 | 2.45 | 2.04 | 1.14 | 1.55 | 2.5 | 24.1 | 1.01 | 2.24 | 22.6 | 2.54 | 0.721 | 0.848
8 | 0.912 | 0.772 | 0.818 | VVPGSYDRLRV [IFT172_Y260_L257P] | 0.469 | 0.359 | 0.603 | 0.394 | 0.399 | 0.496 | 1.13 | 0.406 | 0.486 | 0.353 | 0.332 | 0.462 | 0.439
9 | 0.817 | 1.01 | 0.487 | LFMGDYVGRGF [PPP2CA_Y86_D88G_YF] | 0.456 | 1.5 | 1.04 | 0.919 | 2.31 | 1.38 | 1.48 | 1.1 | 1.53 | 2.4 | 0.412 | 3.61 | 0.739
10 | 0.68 | 0.957 | 0.59 | VGQRPYRPLPE [REEP3_Y170_Q171R] | 0.473 | 0.492 | 0.637 | 0.482 | 0.471 | 0.584 | 0.557 | 0.683 | 0.4 | 0.391 | 0.482 | 0.67 | 0.519
11 | 0.646 | 0.678 | 0.475 | GSERRYSREGG [PTPRN2_Y139] | 0.415 | 0.479 | 0.468 | 0.4 | 0.463 | 0.703 | 0.413 | 0.46 | 0.356 | 0.5 | 0.386 | 0.45 | 0.412
12 | 1.29 | 0.916 | 0.661 | WDLSEYSFKDP [ITGA3_Y237_YF] | 0.445 | 2.17 | 1.23 | 0.625 | 2.11 | 2.14 | 0.618 | 0.853 | 0.985 | 0.682 | 0.556 | 1.21 | 0.885
13 | 0.475 | 0.788 | 0.512 | REIHDYIKHLG [UNC13C_Y308_D304E] | 0.723 | 0.821 | 1.26 | 0.371 | 1.02 | 0.631 | 0.663 | 0.794 | 0.511 | 0.699 | 0.651 | 0.843 | 0.741
14 | 0.587 | 0.838 | 0.506 | EDDPEYMRLRN [ADD2_Y31] | 0.414 | 0.601 | 1.17 | 0.785 | 0.509 | 1.2 | 0.594 | 0.823 | 0.724 | 0.674 | 0.589 | 1.12 | 0.887
15 | 1.62 | 1.21 | 0.788 | HGTKVYIDPFT [EPHB4_Y590] | 1.03 | 0.601 | 0.705 | 0.711 | 0.49 | 0.602 | 0.66 | 0.725 | 0.628 | 0.788 | 0.426 | 0.815 | 0.688
16 | 0.96 | 1.13 | 0.698 | LITTLYIDFLG [KCNQ1_Y267_G269D] | 0.704 | 1.41 | 1.96 | 1.09 | 1.22 | 1.42 | 1.06 | 1.07 | 0.818 | 1.15 | 0.749 | 1.39 | 1.19
